Source: PMC10329633, “Molecular basis and design principles of switchable front-rear polarity and directional migration in Myxococcus xanthus” (Nature Communications, 2023)
“And” between values parts separate entries of the source, which are not always exact repeats. Equal values may be shown once. One block for each molecule: values may come before it.

Tests used:
[1] = target: MalE-MglC (Myxococcus xanthus); assay: mass photometry; single proteins in solution, diluted into phosphate-buffered saline; MalE-RomR and MalE-RomR^C at 25 nM and 50 nM
[2] = target: MalE-RomR (Myxococcus xanthus); assay: as above
[3] = target: MalE-MglC (Myxococcus xanthus); assay: mass photometry; mixtures of MalE-MglC with MalE-RomR or MalE-RomR^C in solution, diluted into phosphate-buffered saline
[4] = target: MalE-RomR^C (Myxococcus xanthus); assay: mass photometry; single proteins in solution, diluted into phosphate-buffered saline; MalE-RomR and MalE-RomR^C at 25 nM and 50 nM
[5] = target: T1, MglA-His6 (Myxococcus xanthus, UniProt Q1DB04 1-195); assay: pull-down; Strep-MglC as bait on Strep-Tactin beads; 40 µM GppNHp in all buffers; without or with MglA-His6 preincubated with GppNHp; proteins 10 µM; MglB detected by immunoblot with α-MglB; settings: both partners purified
T1 construct: MglA, small GTPase of Myxococcus xanthus; Preloaded with GTP, GppNHp or GDP (40 µM) according to the experiment; the nucleotide is named in the assay's format; also called MglA-GTP; source: E. coli Rosetta 2(DE3), purified (Ni-NTA, Superdex 75 gel filtration); not shown: His6, C-terminal, kept
T1 sequence: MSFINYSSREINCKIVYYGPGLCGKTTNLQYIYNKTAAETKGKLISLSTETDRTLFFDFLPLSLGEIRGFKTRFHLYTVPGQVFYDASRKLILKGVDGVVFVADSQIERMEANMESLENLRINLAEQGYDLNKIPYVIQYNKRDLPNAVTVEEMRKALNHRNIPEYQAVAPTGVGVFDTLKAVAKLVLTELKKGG

Molecule: MalE-MglC (natural protein)
stoichiometry N [1]: 2

Molecule: MalE-RomR^C (domain or fragment)
stoichiometry N [4]: 2 and 3
stoichiometry N (RomR^C per MglC (printed as 2:2)) [3]: 1
stoichiometry N (RomR^C per MglC (printed as 3:2)) [3]: 1.5

Further lines, results first:

stoichiometry N [2]: 2 and 3
stoichiometry N (RomR per MglC (printed as 2:2)) [3]: 1
stoichiometry N (RomR per MglC (printed as 3:2)) [3]: 1.5
Molecule: MalE-RomR (natural protein)

binding result [5]: binds
B1: His6-MglB (natural protein, Myxococcus xanthus)
chain: MGTQLVMYEEEFTKINAVCDRLTKDANAKVVFLVDKNGQLISSAGQTQNIDTTSLASLTAGNVAAMGGLAKLIGENEFPNQFHEGAKDSLYMTIVGSRVVLVVIFDNRTSLGLVRLRIKKASDELTKIFESLVKKTDSPGAGSPFAEISDDDIDNLFSE
notes: also called MglB-His6; MglB^WT; source: E. coli Rosetta 2(DE3), purified (Ni-NTA, Superdex 75 gel filtration); not shown: His6, N-terminal, kept
